Reference: publication PMC8313286

How the values were obtained:
[1] = target: RepA, putative replicase of megaplasmid pMP7017 (Bifidobacterium breve JCM7017 (megaplasmid pMP7017)); assay: SEC-MALS
[2] = target: RepB, replication initiator of megaplasmid pMP7017 (Bifidobacterium breve JCM7017 (megaplasmid pMP7017)); assay: SEC-MALS

## RepA, putative replicase of megaplasmid pMP7017 (natural protein)
[1]
  percent of total protein in the dimer peak: 67.3%
  percent of total protein in the presumed octamer peak: 15.7%
  percent of total protein in the presumed tetramer peak: 17%

## RepB, replication initiator of megaplasmid pMP7017 (natural protein)
[2]
  percent of total sample in the dimer peak: 97%
  stoichiometry N: 2
